Experimental data taken from paper PMC4918325, “Mto2 multisite phosphorylation inactivates non-spindle microtubule nucleation complexes during mitosis” (Nature Communications, 2015).

Target: T1, Mto1-SZZ (protein A-tagged Mto1) (Schizosaccharomyces pombe, UniProt O94488 1-1115)
T1 construct: Mto1, Schizosaccharomyces pombe; Bait of all IgG-bead pulldowns; also called SZZ-tagged Mto1; source: S. pombe, gene tagged by PCR-based methods, in cell extract
T1 sequence (looked up): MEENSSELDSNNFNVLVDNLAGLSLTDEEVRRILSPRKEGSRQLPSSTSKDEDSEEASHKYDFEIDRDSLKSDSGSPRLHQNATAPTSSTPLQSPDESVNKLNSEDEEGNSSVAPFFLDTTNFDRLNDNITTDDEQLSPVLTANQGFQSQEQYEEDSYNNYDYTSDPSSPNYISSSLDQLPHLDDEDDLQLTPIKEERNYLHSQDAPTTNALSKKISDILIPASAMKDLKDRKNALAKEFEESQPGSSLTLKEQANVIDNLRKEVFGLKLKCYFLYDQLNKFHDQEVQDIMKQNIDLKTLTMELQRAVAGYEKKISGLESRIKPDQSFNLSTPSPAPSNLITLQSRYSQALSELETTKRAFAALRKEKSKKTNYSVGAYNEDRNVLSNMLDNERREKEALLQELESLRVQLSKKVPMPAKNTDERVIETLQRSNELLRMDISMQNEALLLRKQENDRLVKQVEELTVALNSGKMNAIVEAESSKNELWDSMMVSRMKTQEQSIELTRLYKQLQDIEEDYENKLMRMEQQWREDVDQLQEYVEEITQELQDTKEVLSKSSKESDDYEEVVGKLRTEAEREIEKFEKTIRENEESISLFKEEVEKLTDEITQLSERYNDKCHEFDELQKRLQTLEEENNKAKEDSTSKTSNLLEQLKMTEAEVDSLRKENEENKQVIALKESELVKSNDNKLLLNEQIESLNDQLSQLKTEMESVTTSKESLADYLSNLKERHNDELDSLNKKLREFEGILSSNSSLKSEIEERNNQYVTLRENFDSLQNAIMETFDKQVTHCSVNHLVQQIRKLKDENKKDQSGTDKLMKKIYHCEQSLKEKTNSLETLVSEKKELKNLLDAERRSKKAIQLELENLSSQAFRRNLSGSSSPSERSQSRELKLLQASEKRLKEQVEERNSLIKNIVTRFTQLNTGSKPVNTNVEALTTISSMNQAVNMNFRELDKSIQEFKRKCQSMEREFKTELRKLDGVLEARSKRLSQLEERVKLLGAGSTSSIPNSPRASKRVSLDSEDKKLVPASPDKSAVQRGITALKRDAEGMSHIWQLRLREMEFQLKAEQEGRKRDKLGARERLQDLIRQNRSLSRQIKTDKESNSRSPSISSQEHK
Assay: pull-down; IgG-coupled Dynabeads pull Mto1-SZZ from extracts of interphase (asynchronous) S. pombe cells (mto2+, mto2[6A], mto2[13A], mto2[17A], mto2[24A]); 90 min at 4 °C; lysis buffer 25 mM sodium phosphate pH 7.5, 100 mM KCl, 0.5 mM EDTA, 0.2% Triton X-100 with protease and phosphatase inhibitors; western blot
Conditions: partners not purified

fold change of γ-tubulin copurifying with Mto1-SZZ in mto2[6A] cells relative to wild-type cells: ~1.5 fold
fold change of γ-tubulin copurifying with Mto1-SZZ in mto2[13A] cells relative to wild-type cells: ~1.5 fold
fold change of γ-tubulin copurifying with Mto1-SZZ in mto2[17A] cells relative to wild-type cells: ~3 fold
B1: Gtb1 (S. pombe γ-tubulin) (natural protein, UniProt P25295 1-446, looked up)
chain: MGREIITLQAGQCGNQIGSQFWQQLCLEHGIGPDGTLESFATEGVDRKDVFFYQSDDTRYIPRAILIDLEPRVVNNILSDTYGSLYNPENILITKNGGGAGNNWANGYSHAERIFEDIMDMIDREADGSDSLEGFSLLHSIAGGTGSGLGSFLLERLNDRYPKKIIQTYSVFPNSQSVSDVVVQPYNSLLALKRLTLNADSVVVLDNAALAHIAADRLHTQNPTFHQQNQLVSTVMSASTTTLRYPGYMNNDLVSIIASLIPSPRCHFLLTSYTPFTNQQVEEAKAIRKTTVLDVMRRLLLPKNQMVSVNPSKKSCFISILDIIQGEADPADVHKSLLRIRERRYASFIPWGPASIQVALSKKSPYIKTNHRVSGLMLANHTSIASLFKRTLDQYDRLRKRNAFLEQYKKEAIFEDDLNEFDSSRDVVADLINEYEACEDPNYLSL
notes: γ-tubulin Gtb1, Schizosaccharomyces pombe; Detected by anti-γ-tubulin blot (GTU-88); also called read-out of the γ-tubulin complex (γ-TuC); source: endogenous, S. pombe cell extract
